The results in this text go back to PMC3097154 (2011).

The series concerns the molecule itself. Put plainly: ITC.

B1: HIV-1 capsid CTD CTD (protein)
chain: not shown
One may read the Kd as the free concentration of one partner at which half of the binding sites on the other are occupied at equilibrium, for simple one-to-one binding. A high value points to weaker binding. Take B1: the Kd is roughly 15 µM.
